According to paper PMC4669242 (Bioorganic & medicinal chemistry letters, 2013):

How the values were obtained:
[1] = tested on: human red blood cells (hRBCs); assay: Hemolysis assay, release of hemoglobin; assay type: cell-based; conditions: hRBCs in PBS pH 7.4, 1 h, 37 °C, OD405; average of two independent experiments
[2] = tested on: E. coli; assay: Leakage of intracellular β-galactosidase; assay type: cell-based, E. coli (ATCC 25922); conditions: 1 h of treatment, 37 °C, ONPG, OD405, average of three independent experiments

## Melittin
[1]
  concentration inducing hemolysis (lowest concentration tested): ≤ 1000 nM
[2]
  increase in β-galactosidase release as compared to control buffer: 8 fold
